Columns and labels:
[1] = target: T1, TrfA wt (G254D/S267L, 33 kDa) (plasmid RK2, UniProt P07676 98-382, G254D;S267L); test: UV crosslinking
T1 sequence: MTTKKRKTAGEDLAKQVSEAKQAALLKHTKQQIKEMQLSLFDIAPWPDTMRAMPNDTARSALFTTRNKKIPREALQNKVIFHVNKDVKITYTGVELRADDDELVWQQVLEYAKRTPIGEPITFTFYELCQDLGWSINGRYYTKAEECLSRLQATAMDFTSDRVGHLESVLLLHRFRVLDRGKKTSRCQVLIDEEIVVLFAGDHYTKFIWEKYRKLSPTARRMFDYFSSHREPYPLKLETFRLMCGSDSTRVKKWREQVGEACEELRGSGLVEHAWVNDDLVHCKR

[2] = target: T1, TrfA wt (G254D/S267L, 33 kDa); test: crosslinking-MS

B1: 53T (dsDNA)
DNA 1: CCTGCGGTATTGACACTTGAGGGGCGCGACTACTGACAGATGAGGGGCGCGATCCTTGACACTTGAGGGGCAGAGTGATGACAGATGAGGGGCGCACCTATTGACATTTGAGGGGCTGTCCACAGGCAG
DNA 2: CTGCCTGTGGACAGCCCCTCAAATGTCAATAGGTGCGCCCCTCATCTGTCATCACTCTGCCCCTCAAGTGTCAAGGATCGCGCCCCTCATCTGTCAGTAGTCGCGCCCCTCAAGTGTCAATACCGCAGG
modifications: 5-Br-dU at T53 of top strand
binding result [1]: binds

B2: 69B (dsDNA)
DNA 1: B1 DNA 1
DNA 2: B1 DNA 2
modifications: 5-Br-dU in bottom strand: CTCAAG[BrdU]GTCAAGG
binding result [1]: binds

B3: 57T (dsDNA)
DNA 1: B1 DNA 1
DNA 2: B1 DNA 2
modifications: 5-Br-dU at T57 of top strand
binding result [1]: binds

B4: 58B (dsDNA)
DNA 1: B1 DNA 1
DNA 2: B1 DNA 2
modifications: 5-Br-dU in bottom strand: CACTC[BrdU]GCCCC
binding result [1]: binds

B5: 56T (dsDNA)
DNA 1: B1 DNA 1
DNA 2: B1 DNA 2
modifications: 5-Br-dU at T56 of top strand
binding result [1]: binds

B6: 71B (dsDNA)
DNA 1: B1 DNA 1
DNA 2: B1 DNA 2
modifications: 5-Br-dU in bottom strand: CAAGTG[BrdU]CAAGG
binding result [1]: binds

B7: 37T (dsDNA)
DNA 1: AGTGATGACAGATGAGGGGCGC
DNA 2: GCGCCCCTCATCTGTCATCACT
modifications: C2dT at T15 of bottom strand
binding result [2]: binds

B8: 40T (dsDNA)
DNA 1: AGTGATGACAGATGAGGGGCGC
DNA 2: GCGCCCCTCATCTGTCATCACT
modifications: C2dT at T18 of bottom strand
binding result [2]: binds

B9: 3T (dsDNA)
DNA 1: AGTGATGACAGATGAGGGGCGC
DNA 2: GCGCCCCTCATCTGTCATCACT
modifications: C2dT at T3 of top strand
binding result [2]: binds

Reference: paper PMC8034659
